Experimental data taken from patent US20030073628A1.
Positions of bridges follow the written chain, without caps; N, C: chain ends. No end group written: not given here.

Target: guanylate cyclase receptor (on human T84 colon carcinoma cells) (human)
Assay: cell-based or functional assay

| Binder | cGMP Level (pmol/well), T84 cells, 1 micromolar peptide for 30 minutes |
| --- | --- |
| NDECELCVNVACTGCL (disulfide 4-12, 7-15) [[Glu^3]-UG (SP304)] | 315 pmol/well |
| ECELCVNVACTGCL (disulfide 2-10, 5-13) [SP316] | 275 pmol/well |
| NEDCELCVNVACTGCL (disulfide 4-12, 7-15) [[Glu^2]-UG (SP303)] | 195 pmol/well |
| NEECELCVNVACTGCL (disulfide 4-12, 7-15) [[Glu^2, Glu3]-UG (SP302)] | 225 pmol/well |
| NDDCELCVNVACTGCL (disulfide 4-12, 7-15) [human uroguanylin, bicyclo [4,12; 7,15] (SP301)] | 205 pmol/well |
